{"source": "patent US20250154240A1", "about": "(CHIOME BIOSCIENCE, published 2025)", "binders": {"B1": {"name": "Hu4A-2F7 VH1/VL1 (antibody, V domains shown)", "VH": "QVTLKESGPALVKPTQTLTLTCTFSGFSLSTSGMGVDWIRQPPGKALEWLAHIWWDDDKYYNPSLKSQLTISKDTSKNQVVLTMTNMDPVDTATYYCARSYGYDMDYYAMDYWGQGTTVTVSS", "VL": "DIQMTQSPSSLSASVGDRVTITCRASQEISGYLSWLQQKPGKAPKRLIYAASTLSSGVPSRFSGSGSGTDFTLTISSLQPEDFATYYCLQYASYPPWTFGGGTKVEIK"}, "B2": {"name": "Hu4A-2F7 VH2/VL2 (antibody, V domains shown)", "VH": "B1 VH with A46G", "VL": "B1 VL with F71Y", "notes": "Humanized antibody"}, "B3": {"name": "Hu4A-2F7 VH1/VL2 (antibody, V domains shown)", "VH": "B1 VH", "VL": "B1 VL with F71Y", "notes": "Humanized antibody"}, "B4": {"name": "Hu4A-2F7 VH2/VL1 (antibody, V domains shown)", "VH": "B1 VH with A46G", "VL": "B1 VL", "notes": "Humanized antibody"}, "B5": {"name": "5A-5E11 (antibody, V domains shown)", "VH": "QVQLQQSGAELVRPGSSVKISCKASGYAFSDYWMNWVKQRPGQGLEWIGQIYPGDGDTNYNGKFKGKGTLTADKSSSTAYMQLNSLTSEDSAVYFCARERDYDVAMDYWGQGTSVTVSS", "VL": "DIQMTQSPSSLSASLGGKVTITCKASQDINKYIAWFQHKPGKGPRLVIHYTSILQPGIPSRFSGVGSGRDYSFSIRNLEPEDIATYYCLQYDNLPWTFGGGTKLEIK"}, "B6": {"name": "4A-2F7 (antibody, V domains shown)", "VH": "QVTLKESGPGILKPSQTLSLTCSFSGFSLSTSGMGVDWIRQPSGKGLEWLAHIWWDDDKYYNPSLKSQLTISKDTSRNQVFLKITSVDTADTATYYCARSYGYDMDYYAMDYWGQGTSVTVSS", "VL": "DIQMTQSPSSLSASLGERVSLTCRASQEISGYLSWLQQKPDGTIKRLIYAASTLDSGVPKRFSGSRSGSDYSLTISSLESEDFADYYCLQYASYPPWTFGGGTKLEIK"}, "B7": {"name": "mh4A-2F7_VH/VL1 (antibody, V domains shown)", "VH": "B6 VH", "VL": "B6 VL with D55S"}, "B8": {"name": "028-8-12 (antibody, V domains shown)", "VH": "EVQLLESGGGLVQPGGSLRLSCAASGFTFSELSMSWVRQAPGKGLEWVSAISGSGGSTYYADSVKGRFTISRDNSKNTLYLQMNSLRAEDTAVYYCAREGGRLEPYYYYYAMDVWGQGTPVTVSS", "VL": "DIQMTQSPSSLSASVGDRVTITCRASQSISDNLHWYQQKPGKAPKLLIYDASNLESGVPSRFSGSGSGTDFTLTINSLQPEDFATYYCQQYYSTPLTFGQGTKLEIK", "notes": "Unmodified human antibody obtained by the human ADLib technique; also called ADLib#028-08-12; ADLib #028-8-12"}, "B9": {"name": "ADLib#028-8-12_VH1/VL1 (antibody, V domains shown)", "VH": "B8 VH with D62S", "VL": "B8 VL with N76S", "notes": "Amino acid-modified human antibody; also called modified human antibody 028-8-12"}, "B10": {"name": "Hu5A-5E11 VH1/VL1 (antibody, V domains shown)", "VH": "QVQLVQSGAEVKKPGSSVKVSCKASGYAFSDYWMNWVRQAPGQGLEWIGQIYPGSGDTNYNAKFKGKGTITADKSTSTAYMELSSLRSEDTAVYYCARERDYDVAMDYWGQGTTVTVSS", "VL": "DIQMTQSPSSLSASVGDRVTITCKASQDINKYIAWFQQKPGKAPKLVIHYTSILQPGVPSRFSGSGSGTDYTFTISSLQPEDIATYYCLQYDNLPWTFGGGTKVEIK", "notes": "also called humanized Hu5A-5E11"}, "B11": {"name": "1A-7H10 (antibody, V domains shown)", "VH": "QVQLKESGPVLVAPSQSLSITCSVSGFSSTTYGVHWVRQPPGQGLEWLGVIWAGGSTNYNSALMSRLSISKDNSKSQVFLKMNSLQTDDTAMYYCATQYHYPFAYWGQGTLVTVSA", "VL": "NIVMTQSPKSMSMSVGERVTLSCKASENVGIYVSWYQQKPEQSPKLMIYGASNRNTGVPDRFTGSGSATDFTLTISSVQAEDLADYYCGQSYSYPLTFGAGTKLELK"}}, "key": {"[1]": {"molecular_target": "T1, human CXCL1 protein (human, UniProt P09341 35-107)", "T1 construct": "also called HuCXCL1", "T1 sequence": "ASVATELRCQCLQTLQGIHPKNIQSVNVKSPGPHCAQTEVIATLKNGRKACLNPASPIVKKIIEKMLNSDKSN", "experiment": "antigen-immobilized ELISA, HuCXCL1 on the plate, absorbance (upper right panel; chimeric label printed mh4A-7H10, taken as the 4A-2F7 panel)"}, "[2]": {"molecular_target": "T1, human CXCL1 protein", "experiment": "cell-based or functional assay"}, "[3]": {"molecular_target": "T1, human CXCL1 protein", "experiment": "antigen-immobilized ELISA, HuCXCL1 on the plate, absorbance (upper right panel; label printed mh4A-7H10, taken as the 4A-2F7 panel)"}, "[4]": {"molecular_target": "T1, human CXCL1 protein", "experiment": "antigen-immobilized ELISA, HuCXCL1 on the plate, absorbance (lower right panel)"}, "[5]": {"molecular_target": "T2, mouse CXCL1 (mouse, UniProt P12850 25-96, limits assumed)", "T2 construct": "also called MsCXCL1", "T2 sequence (looked up)": "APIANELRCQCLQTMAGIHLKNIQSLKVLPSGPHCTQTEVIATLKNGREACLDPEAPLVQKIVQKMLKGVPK", "experiment": "blocking ELISA: MsCXCL1 immobilised, antibody 0 to 10 µg/mL, then biotin-labeled heparin 10 µg/mL (blocked ligand: heparin); panel MsCXCL1", "protocol": "(§1) Thus, the effect of Hu5A-5E11 on the binding of CXCLs to GAG was evaluated by ELISA assay using plates on which the antigen (HuCXCL1 protein) used for immunization or HuCXCL2, 3 and 5 and MsCXCL1 and 2 proteins had been directly immobilized. CXCLs other than HuCXCL1 were purchased from PROTEINTECH and used. Biotin-labeled heparan sulfate and heparin were purchased from PG Research and used.\n(§2) To 96-well plates, phosphate-buffered saline (PBS) containing 3 μg/mL of HuCXCL1, 2, 3 or 5 or MsCXCL1 or 10 μg/mL of MsCXCL2 was added in a volume of 50 μL per well, and the plates were allowed to stand overnight at 4° C. After removal of the antigen solutions, PBS containing 0.05% Tween-20 (hereinafter referred to as the blocking solution) was added to each well for blocking reaction, and the plates were allowed to stand at room temperature for 30 minutes. […] TMB (Dako) was added as a chromogenic substrate solution to cause color development, and 1 N sulfuric acid was added to stop the reaction, followed by measurement of absorbance at 450 nm. The binding rate of CXCLs to GAG was calculated as a ratio relative to the absorbance measured in the absence of the antibody, which was set to 100%."}, "[6]": {"molecular_target": "T1, human CXCL1 protein", "experiment": "blocking ELISA: HuCXCL1 immobilised, antibody 0 to 10 µg/mL, then biotin-labeled heparin 10 µg/mL (blocked ligand: heparin); panel HuCXCL1", "protocol": "as §1, §2"}, "[7]": {"molecular_target": "T1, human CXCL1 protein", "experiment": "antigen-immobilized ELISA, HuCXCL1 on the plate, absorbance (lower left panel)"}, "[8]": {"molecular_target": "T3, human CXCL3 (human, UniProt P19876 35-107, limits assumed)", "T3 construct": "also called HuCXCL3", "T3 sequence (looked up)": "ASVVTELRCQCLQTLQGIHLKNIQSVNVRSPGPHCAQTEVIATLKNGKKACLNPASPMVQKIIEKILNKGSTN", "experiment": "blocking ELISA: HuCXCL3 immobilised, antibody 0 to 10 µg/mL, then biotin-labeled heparin 10 µg/mL (blocked ligand: heparin); panel HuCXCL3", "protocol": "as §1, §2"}, "[9]": {"molecular_target": "T4, human CXCL5 (human, UniProt P42830 37-114, limits assumed)", "T4 construct": "also called HuCXCL5", "T4 sequence (looked up)": "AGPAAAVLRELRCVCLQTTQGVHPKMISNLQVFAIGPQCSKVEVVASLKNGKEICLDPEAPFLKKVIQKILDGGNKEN", "experiment": "blocking ELISA: HuCXCL5 immobilised, antibody 0 to 10 µg/mL, then biotin-labeled heparin 10 µg/mL (blocked ligand: heparin); panel HuCXCL5", "protocol": "as §1, §2"}, "[10]": {"molecular_target": "T5, human CXCL2 (human, UniProt P19875 35-107, limits assumed)", "T5 construct": "also called HuCXCL2", "T5 sequence (looked up)": "T1 sequence with S2P, V3L, P20L, N27K, R48Q, I58M, N68K, S69N, D70G", "experiment": "blocking ELISA: HuCXCL2 immobilised, antibody 0 to 10 µg/mL, then biotin-labeled heparan sulfate 10 µg/mL (blocked ligand: heparan sulfate); panel HuCXCL2", "protocol": "as §1, §2"}}, "note": "Substitutions are numbered along the chain they refer to."}
{"binder": "B1", "values": [{"measurement": "EC50 (read off the curve)", "setting": "[1]", "result": "~0.02", "unit": "µg/mL"}]}
{"binder": "B2", "values": [{"measurement": "EC50 (read off the curve)", "setting": "[1]", "result": "~0.02", "unit": "µg/mL"}]}
{"binder": "B3", "values": [{"measurement": "EC50 (read off the curve)", "setting": "[1]", "result": "~0.02", "unit": "µg/mL"}]}
{"binder": "B4", "values": [{"measurement": "EC50 (read off the curve)", "setting": "[1]", "result": "~0.02", "unit": "µg/mL"}]}
{"binder": "B5", "values": [{"measurement": "HuCXCL1 neutralizing activity EC50 (nM), Ca^2+ Flux assay", "setting": "[2]", "result": 3.96, "unit": "nM"}]}
{"binder": "B6", "values": [{"measurement": "HuCXCL1 neutralizing activity EC50 (nM), Ca^2+ Flux assay", "setting": "[2]", "result": 4.8, "unit": "nM"}]}
{"binder": "B7", "values": [{"measurement": "EC50 (read off the curve)", "setting": "[3]", "result": "~0.02", "unit": "µg/mL"}]}
{"binder": "B8", "values": [{"measurement": "EC50 (read off the curve)", "setting": "[4]", "result": "~0.04", "unit": "µg/mL"}, {"measurement": "HuCXCL1 neutralizing activity EC50 (nM), Ca^2+ Flux assay", "setting": "[2]", "result": 5.73, "unit": "nM"}]}
{"binder": "B9", "values": [{"measurement": "EC50 (read off the curve)", "setting": "[4]", "result": "~0.04", "unit": "µg/mL"}]}
{"binder": "B10", "values": [{"measurement": "IC50 (read off the curve)", "setting": "[5]", "result": "~0.6", "unit": "µg/mL"}, {"measurement": "IC50 (read off the curve)", "setting": "[6]", "result": "~0.6", "unit": "µg/mL"}, {"measurement": "EC50 (read off the curve)", "setting": "[7]", "result": "~0.02", "unit": "µg/mL"}, {"measurement": "IC50 (read off the curve)", "setting": "[8]", "result": "~0.5", "unit": "µg/mL"}, {"measurement": "binding result", "setting": "[9]", "result": "binds"}, {"measurement": "IC50 (read off the curve)", "setting": "[10]", "result": "~0.8", "unit": "µg/mL"}]}
{"binder": "B11", "values": [{"measurement": "HuCXCL1 neutralizing activity EC50 (nM), Ca^2+ Flux assay", "setting": "[2]", "result": 6.24, "unit": "nM"}]}
